Test results from patent US6468985B1, “Retinoblastoma protein-interacting zinc finger proteins” (The Burnham Institute, priority 1994, dated 2002).

Experiments:
[1] = biological target: T1, RIZ (Rattus norvegicus, UniProt Q63755); assay: binding of anti-RIZ antiserum / anti-ce1 antibody to RIZ and RIZ truncation mutants
T1 construct: made in house; host or cells: in vitro transcription/translation (rabbit reticulocyte lysate)
T1 sequence (Q63755 1-318): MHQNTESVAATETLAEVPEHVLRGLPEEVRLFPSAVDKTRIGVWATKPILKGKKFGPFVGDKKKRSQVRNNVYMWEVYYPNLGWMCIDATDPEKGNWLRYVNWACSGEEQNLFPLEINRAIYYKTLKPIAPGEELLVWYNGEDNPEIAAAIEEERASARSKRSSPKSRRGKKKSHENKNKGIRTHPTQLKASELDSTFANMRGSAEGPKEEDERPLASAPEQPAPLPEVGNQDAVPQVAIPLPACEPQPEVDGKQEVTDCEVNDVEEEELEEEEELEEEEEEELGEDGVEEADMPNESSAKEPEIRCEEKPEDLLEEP
Description: Anti-RIZ antibodies purified from the E1A affinity column were tested for binding to RIZ and E1A. […] The E1A-affinity purified RIZ antibodies were designated “anti-ce1” for cross reacting E1A antigen.
Anti-ce1 antibodies were tested for binding to various deletion mutants of RIZ and E1A 12S in order to map the location of the ce1 epitope on each molecule.
To evaluate this possibility, an 11 amino acid peptide encompassing residues 310-320 in RIZ (ce1 peptide) [sequence] (SEQ ID NO: 7) and an overlapping 11 amino acid control peptide encompassing residues 304-314 containing the cr2 core motif of RIZ, peptide [sequence] (SEQ ID NO: 6), were synthesized by solid phase peptide synthesis and tested for their ability to block binding between anti-ce1 antibody and RIZ or E1A.

[2] = biological target: E1A 12S (Human adenovirus C serotype 5, UniProt P03255)
Description: To investigate this relationship further, the anti-RIZ antiserum raised against the GST-RIZ (245-573) fusion protein containing the cr2, ce1 and part of the cr1 motifs, was tested for cross reactivity with E1A. For these experiments, E1A was labeled with ^35S-methionine during in vitro transcription/translation using methods described above.
To further verify binding between anti-RIZ and E1A, the cross reactive antibodies from the anti-RIZ antiserum were purified by affinity chromatography on a column containing E1A 12S protein.
E1A 12S, truncated at residue 223 (E1A223) was produced by generating a PCR fragment of E1A using an upstream SP6 primer (Stratagene) a downstream E1A primer 5′-[sequence] […] The resulting PCR fragment was cloned into pCRSK+, which was used to direct the synthesis of the mutant E1A 12S protein by SP6 in vitro transcription/translation. The full length E1A 12S (E1A243) was produced from vector pGEM1Ad5E1A12S by in vitro transcription/translation as described above for the other vectors.
The regions of RIZ and E1A 12S that contain the ce1 epitope show significant amino acid sequence homology (FIG. 2A). The sequence ^312EDLLEE (SEQ ID NO: 20) in RIZ and the sequence ^224EDLLNE (SEQ ID NO: 21) in E1A are likely sites for the ce1 epitope. To evaluate this possibility, an 11 amino acid peptide encompassing residues 310-320 in RIZ (ce1 peptide) [sequence] […]

[3] = biological target: T2, p56EERb (Homo sapiens, UniProt P06400); assay: cDNA expression library filter screening with p56EERb, binding-specificity control; settings: p56EERb preincubated with 5 μM poly-L-lysine or 50 μM T- or K-peptide
T2 construct: p56 Rb: 56 kD fragment of Rb from a.a. position 379-928; made in house; host or cells: E. coli BL21(DE3)pLysS
T2 sequence (P06400 379-928): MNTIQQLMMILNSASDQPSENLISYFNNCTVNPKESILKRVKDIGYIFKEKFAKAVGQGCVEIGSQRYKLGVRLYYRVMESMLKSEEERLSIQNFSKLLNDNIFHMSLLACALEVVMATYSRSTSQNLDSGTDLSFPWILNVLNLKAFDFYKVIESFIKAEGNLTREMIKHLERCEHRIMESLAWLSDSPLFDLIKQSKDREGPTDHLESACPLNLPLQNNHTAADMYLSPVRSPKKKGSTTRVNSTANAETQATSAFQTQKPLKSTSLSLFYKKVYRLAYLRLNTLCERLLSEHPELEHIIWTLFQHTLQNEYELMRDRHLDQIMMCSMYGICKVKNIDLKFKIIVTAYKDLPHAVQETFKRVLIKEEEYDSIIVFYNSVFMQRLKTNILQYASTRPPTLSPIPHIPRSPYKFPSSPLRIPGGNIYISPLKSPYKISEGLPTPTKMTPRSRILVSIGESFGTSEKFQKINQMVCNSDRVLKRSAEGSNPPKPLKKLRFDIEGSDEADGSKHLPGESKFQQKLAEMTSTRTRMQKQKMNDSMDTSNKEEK
Description: A rat RIZ cDNA was obtained from a rat neonatal cardiac myocyte λgt11 cDNA expression library (Zhu et al., Mol. Cell Biol., 13:4432 (1993), which is incorporated herein by reference). The library was screened using a 56 kD fragment containing the pocket binding site of Rb and the EE epitope (p56EERb) according to previously described methods (Macgregor et al., Oncogene, 5:451-458 (1991), which is incorporated herein by reference).
For binding-specificity control, p56EERb was preincubated with 5 μM poly-L-lysine (Sigma) or 50 μM T- or K-peptide (Huang et al., supra, 1991) before applying onto filters. T peptide is an 18 residue synthetic peptide derived from residues 101-118 of SV40 large T antigen, while K peptide is the same as T peptide except for a lysine residue substituted for a glutamic acid residue at position 107 of SV40 large T antigen (Huang et al., supra, 1991).
The binding of p56EERb to a clone expressing a RIZ protein was detected using an anti-EE monoclonal antibody obtained as spent culture medium of the anti-EE hybridoma (Walter, supra, 1986) and an alkaline phosphatase conjugated goat anti-mouse IgG antibody specific for mouse immunoglobulin (Promega; Madison Wis.).

[4] = biological target: T3, 35S-RIZ (1-575)^307-Gly (rat, UniProt Q63755 1-575, 35S label); assay: immunoprecipitation with anti-Rb antiserum, SDS-PAGE, autoradiography
T3 construct: In vitro transcribed/translated; also called glycine mutant; cr2 mutant
T3 sequence: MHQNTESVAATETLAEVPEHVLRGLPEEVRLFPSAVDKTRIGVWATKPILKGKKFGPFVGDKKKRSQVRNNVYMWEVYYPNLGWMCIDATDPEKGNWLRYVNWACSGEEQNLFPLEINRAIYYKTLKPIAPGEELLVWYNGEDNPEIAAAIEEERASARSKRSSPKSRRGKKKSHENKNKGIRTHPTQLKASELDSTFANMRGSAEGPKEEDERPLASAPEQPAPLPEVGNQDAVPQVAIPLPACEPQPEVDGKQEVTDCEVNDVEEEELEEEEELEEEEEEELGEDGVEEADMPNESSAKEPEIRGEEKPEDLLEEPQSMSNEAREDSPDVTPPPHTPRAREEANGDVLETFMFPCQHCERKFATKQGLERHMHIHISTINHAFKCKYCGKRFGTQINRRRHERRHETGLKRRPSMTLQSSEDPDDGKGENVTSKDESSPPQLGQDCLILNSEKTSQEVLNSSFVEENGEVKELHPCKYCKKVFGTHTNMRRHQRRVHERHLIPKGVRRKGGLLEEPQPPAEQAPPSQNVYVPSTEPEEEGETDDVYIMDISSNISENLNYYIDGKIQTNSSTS

[5] = biological target: T4, hypophosphorylated Rb (pRb) from HT1080 cell extract (UniProt P06400 2-928, hypophosphorylated form); assay: glutathione-agarose pull-down from HT1080 cell extract with 4 ug GST-RIZ; anti-Rb immunoblot
T4 construct: Endogenous protein in a cell lysate; also called Rb from HT1080 cells; fastest migrating forms of Rb
T4 sequence (looked up): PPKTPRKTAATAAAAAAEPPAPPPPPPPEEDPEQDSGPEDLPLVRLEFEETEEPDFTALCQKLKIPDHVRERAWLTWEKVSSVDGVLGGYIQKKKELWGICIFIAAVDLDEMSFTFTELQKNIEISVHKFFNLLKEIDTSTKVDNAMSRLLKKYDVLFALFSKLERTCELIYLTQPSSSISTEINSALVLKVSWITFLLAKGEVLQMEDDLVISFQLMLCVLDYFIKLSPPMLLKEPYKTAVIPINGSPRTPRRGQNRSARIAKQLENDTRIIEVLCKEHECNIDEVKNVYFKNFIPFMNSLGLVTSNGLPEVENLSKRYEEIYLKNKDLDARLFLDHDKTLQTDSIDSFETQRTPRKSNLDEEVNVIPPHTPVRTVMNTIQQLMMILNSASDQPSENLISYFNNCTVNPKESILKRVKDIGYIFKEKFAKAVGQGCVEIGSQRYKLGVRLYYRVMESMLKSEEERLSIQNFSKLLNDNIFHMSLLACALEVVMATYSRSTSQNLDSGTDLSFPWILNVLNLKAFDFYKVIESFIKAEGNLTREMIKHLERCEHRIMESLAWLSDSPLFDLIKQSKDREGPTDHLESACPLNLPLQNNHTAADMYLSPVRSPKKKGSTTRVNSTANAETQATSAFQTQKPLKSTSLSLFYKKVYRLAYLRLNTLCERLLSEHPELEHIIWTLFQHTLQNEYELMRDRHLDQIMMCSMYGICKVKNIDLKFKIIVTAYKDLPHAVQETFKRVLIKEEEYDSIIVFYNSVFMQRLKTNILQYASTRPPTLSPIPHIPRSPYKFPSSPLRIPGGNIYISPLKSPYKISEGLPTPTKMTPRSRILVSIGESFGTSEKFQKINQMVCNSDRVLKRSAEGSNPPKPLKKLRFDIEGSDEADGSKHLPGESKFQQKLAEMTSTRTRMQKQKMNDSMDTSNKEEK
Description: The cells were grown in DMEM supplemented with 100 fetal calf serum. Cells were lysed in ELB buffer (50 mM HEPES, pH 7.5, 250 mM NaCl, 0.1% NP-40) supplemented with 5 mM EDTA, 50 mM NaF, 1 mM Na orthovanadate, 1 mM of DTT, aprotinin, leupeptin, and PMSF. The lysate was cleared of cell debris by centrifugation at 12,000 rpm for 10 min in a microfuge.

[6] = biological target: 35S-labeled full length RIZ (rat, UniProt Q63755 1-1706, 35S label); assay: GST fusion protein with in vitro translated labeled protein

Sequence of E1A 12S (P03255 1-139, added parts left off): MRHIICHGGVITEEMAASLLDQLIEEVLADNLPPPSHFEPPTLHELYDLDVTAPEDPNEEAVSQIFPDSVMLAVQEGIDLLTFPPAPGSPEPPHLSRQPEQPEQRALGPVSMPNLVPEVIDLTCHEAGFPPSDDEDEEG

KPEDLLEEPQS [ce1 peptide]
inhibition of binding between anti-ce1 antibody and 35S-RIZ318 [1]: inhibited binding
inhibition of binding between anti-ce1 antibody and 35S-E1A 12S (E1A243) [2]: inhibited binding

poly-L-lysine
inhibition of binding of p56EERb to RIZ-expressing clones [3]: maintained their reactivity

B1: 56 kD fragment of Rb produced by bacterial expression from p56Rb plasmid (other, UniProt P06400 379-928, looked up)
chain: MNTIQQLMMILNSASDQPSENLISYFNNCTVNPKESILKRVKDIGYIFKEKFAKAVGQGCVEIGSQRYKLGVRLYYRVMESMLKSEEERLSIQNFSKLLNDNIFHMSLLACALEVVMATYSRSTSQNLDSGTDLSFPWILNVLNLKAFDFYKVIESFIKAEGNLTREMIKHLERCEHRIMESLAWLSDSPLFDLIKQSKDREGPTDHLESACPLNLPLQNNHTAADMYLSPVRSPKKKGSTTRVNSTANAETQATSAFQTQKPLKSTSLSLFYKKVYRLAYLRLNTLCERLLSEHPELEHIIWTLFQHTLQNEYELMRDRHLDQIMMCSMYGICKVKNIDLKFKIIVTAYKDLPHAVQETFKRVLIKEEEYDSIIVFYNSVFMQRLKTNILQYASTRPPTLSPIPHIPRSPYKFPSSPLRIPGGNIYISPLKSPYKISEGLPTPTKMTPRSRILVSIGESFGTSEKFQKINQMVCNSDRVLKRSAEGSNPPKPLKKLRFDIEGSDEADGSKHLPGESKFQQKLAEMTSTRTRMQKQKMNDSMDTSNKEEK
notes: range 379-928; Expressed in E. coli; also called 56 kD Rb
binding result [4]: no binding (tested: 33 nM Rb)

B2: purified rat RIZ (a.a. position 215-462) fused C-terminal to glutathionine S-transferase (GST) (other)
chain: PLASAPEQPAPLPEVGNQDAVPQVAIPLPACEPQPEVDGKQEVTDCEVNDVEEEELEEEEELEEEEEEELGEDGVEEADMPNESSAKEPEIRCEEKPEDLLEEPQSMSNEAREDSPDVTPPPHTPRAREEANGDVLETFMFPCQHCERKFATKQGLERHMHIHISTINHAFKCKYCGKRFGTQINRRRHERRHETGLKRRPSMTLQSSEDPDDGKGENVTSKDESSPPQLGQDCLILNSEKTSQEVLN
notes: not shown: glutathione S-transferase
binding result [5]: binds
binding result [6]: no binding
